Source: US20100285988A1
Blank lines part the entries; values can stand above or below the substance they belong to.

Legend:
[1] = target: γ-secretase (human; HeLa cell membrane / solubilized HeLa membrane; endogenous in HEK293 cells) (human) (UniProt P49768); test: cell-based or functional assay
[2] = target: γ-secretase (mouse; mouse brain membrane, N2A neuroblastoma cells) (mouse); test: cell-based or functional assay

inhibition of X40 production, αCTF at 0.25 µM [1]: 24%
inhibition of X40 production, αCTF at 0.5 µM [1]: 32%
inhibition of X40 production, αCTF at 1.0 µM [1]: 60%
suppression of γ-secretase activity for Aβ production from 1 µM βCTF, αCTF at 0.25 µM [1]: 66%
suppression of γ-secretase activity for Aβ production from 1 µM βCTF, αCTF at 0.5 µM [1]: 71%
suppression of γ-secretase activity for Aβ production from 1 µM βCTF, αCTF at 1.0 µM [1]: 82%
Substance: αCTF-FLAG (recombinant α-secretase cleaved APP C-terminal fragment) (from UniProt P05067 688-770)

reaction rate of γ-secretase (Aβ40 production in vitro) relative to WT βCTF [1]: 3 fold
Substance: recombinant βCTF with the Flemish mutation (A21G) (from UniProt P05067 672-770)

rate of γ-secretase activity for Aβ38 production relative to βCTF (HeLa membrane) [1]: < 10 fold
secreted Aβ40 from transfected HEK293T cells relative to SPβCTF (ECL) [1]: 10 fold
reaction rate of γ-secretase, 40-site production, relative to βCTF (mouse brain membrane) [2]: 25 fold
reaction rate of γ-secretase, 42-site production, relative to βCTF (mouse brain membrane) [2]: 11 fold
Substance: βCTFΔ (Aβ17-23 deleted form of βCTF)
